Where a chain is given by its changes, count along the chain named. Non-standard residues stand in square brackets, D forms with d. No end group written: not given here. Aib = CC(C)(N)C(=O)O
B1: anti-Her2 two helix binder (SEQ ID NO. 23) (designed binder)
chain: VENKCNKEMRNAYWEIALLPNLNNQQKRAFIRSLYDDPX
modifications: C^1 = hindered cysteine (penicillamine) at 39, disulfide linkage to natural Cys 5
B2: anti-Her2 two helix binder (SEQ ID NO. 20) (designed binder)
chain: B1 chain with C5X, X39C
modifications: C^2 = extended cysteine (homocysteine) at 5, disulfide linkage to natural Cys 39
B3: anti-Her2 two helix binder (SEQ ID NO. 12), peptide with a covalent bridge between two E^1 residues (designed binder)
chain: B1 chain with E8X, E15X, X39C
modifications: E^1 = O-allyl glutamic acid at 8 and 15 joined by a covalent bridge (ring closing metathesis)
notes: Cys at 5 and 39
B4: anti-Her2 two helix binder (SEQ ID NO. 19) (designed binder)
chain: B1 chain with C5X, X39C
modifications: C^1 = hindered cysteine (penicillamine) at 5, disulfide linkage to natural Cys 39

How the values were obtained:
[1] = target: T1, extracellular domain of the Her2/neu antigen as a conjugate with the Fc region of human IgG (Fc-Her2), R&D … (human, UniProt P04626 23-652); assay: binding analysis (method not given; SPR per Example 2)
T1 construct: extracellular domain; Bought reagent; not shown: Fc region of human IgG

[2] = target: T1, extracellular domain of the Her2/neu …; assay: SPR (Biacore) relative binding, about 5 ug/ml peptide
Experimental: Binding interactions between the binder and the Her2/neu antigen was measured in vitro using surface plasmon resonance (SPR) detection on a BIAcore™ 3000 instrument (Piscataway, N.J.). The extracellular domain of the Her2/neu antigen was obtained as a conjugate with the Fc region of human IgG (Fc-Her2) from R&D Systems and covalently attached to a CM-5 dextran-functionalized sensor chip (BIAcore™) pre-equilibrated with HBS-EP buffer (0.01M HEPES pH 7.4, 0.15M NaCl, 3 mM EDTA, 0.005% v/v surfactant P20) at 10 μL/min and subsequently activated with 1-ethyl-3-[3-dimethylaminopropyl]carbodiimide hydrochloride (EDC) and N-hydroxysuccinimide (NHS). The Fc-Her2 (5 μg/ml) in 10 mM sodium acetate (pH 5.5) was injected onto the activated sensor chip until the desired immobilization level was achieved (2 min). Residual activated groups on the sensor chip were blocked by injection of ethanolamine (1 M, pH 8.5). Any non-covalently bound conjugate was removed by repeated (n=5) washing with 2.5 M NaCl₂, 50 mM NaOH.
A second flow cell on the same sensor chip was treated identically, except with no Fc-Her2 immobilization, to serve as a control surface for refractive index changes and non-specific binding interactions with the sensor chip. Prior to the kinetic study, binding of the target analyte was tested on both surfaces and a surface stability experiment was performed to ensure adequate removal of the bound analyte and regeneration of the sensor chip following treatment with 2.5 M NaCl, 50 mM NaOH. SPR sensorgrams were analyzed using the BiaEval (BIAcore) software. The robustness of the kinetic model was determined by evaluation of the residuals and standard error for each of the calculated kinetic parameters, the “goodness of the fit” (χ2<10), and a direct comparison of the modeled sensorgrams to the experimental data.

Binder | binding result [1] | binding result [2]
VENKCNKEMRNAYWEIALLPNLNNQ[Aib]KRA[Aib]IRS[Aib]YDDPC-NH2 (designed binder, cysteine pairing not given here, Cys at 5 and 39) [anti-Her2 two helix binder (SEQ ID NO. 25)] | no binding | 
VENKCNK[Aib]MRN[Aib]YWE[Aib]ALLPNLNNQQKRAFIRSLYDDPC-NH2 (designed binder, cysteine pairing not given here, Cys at 5 and 39) [anti-Her2 two helix binder (SEQ ID NO. 24)] | no binding | 
VENKCNK[Aib]MRN[Aib]YWE[Aib]ALLPNLNNQ[Aib]KRA[Aib]IRS[Aib]YDDPC-NH2 (designed binder, cysteine pairing not given here, Cys at 5 and 39) [anti-Her2 two helix binder (SEQ ID NO. 26)] | no binding | 
B1 |  | binds
B2 |  | binds
B3 |  | binds
B4 |  | binds
VENKCNKEMRNAYWEIALLPNLNNQQKRXFIRSLYDDPC (designed binder, X = alpha amino isobutyric acid (Aib) at 29, Cys at 5 and 39) [anti-Her2 two helix binder (SEQ ID NO. 27), peptide with Ala29Aib] |  | binds
